Source: the supplement of paper PMC10899765

Experiments:
Conditions in all cases: 20 nM; 72 h
MCF10A [1] = test: one-nucleolus phenotype percent effect (relative to siNT 0% and siNOL11 100%); higher = more cells with one nucleolus (ribosome biogenesis inhibition)
Protocol: (§1)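 After 72 h, cells were fixed and stained with Hoechst and anti-fibrillarin, and nucleoli per nucleus were counted with CellProfiler. Values are plate-adjusted percent effect for the one-nucleolus and 5+ nucleoli phenotypes, normalised to siNT (0%) and to the positive controls siNOL11 or siKIF11 (100%), as the mean of biological triplicates. Percent viability is the nuclei count relative to siNT.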

MCF10A [2] = test: 5+ nucleoli phenotype percent effect (relative to siNT 0% and siKIF11 100%); higher = more cells with five or more nucleoli
Protocol: as §1

MCF10A [3] = test: percent viability (nuclei count relative to siNT); higher = more viable cells
Protocol: as §1

Sequence | one-nucleolus phenotype percent effect (MCF10A [1]) [%] | 5+ nucleoli phenotype percent effect (MCF10A [2]) [%] | percent viability (MCF10A [3]) [%]
AAGAGAGGAGCAGUGGUGCUGUGG [hsa-miR-6856-5p] | 0.793 | -5.13 | 52.1
UGAGGUAGUAGAUUGUAUAGUU [hsa-let-7f-5p] | -20.6 | 25.3 | 123
CAUUAUUACUUUUGGUACGCG [hsa-miR-126-5p] | -14.9 | 12.5 | 88.9
AUAAGACGAACAAAAGGUUUGU [hsa-miR-208b] | 2.18 | 3.95 | 63
CUCUCUACUGACUUGCAACAUA [hsa-miR-4684-5p] | -6.81 | 33.1 | 72.5
UAUGUAACAUGGUCCACUAACU [hsa-miR-379-3p] | -12 | 38.4 | 89.1
GUGAGUGGGAGCCCCAGUGUGUG [hsa-miR-1238-5p] | -21.4 | 22.1 | 95.1
AUAUAAUACAACCUGCUAAGUG [hsa-miR-374b-5p] | -13.3 | 35.9 | 103
ACUCCAAGAAGAAUCUAGACAG [hsa-miR-5695] | -26.7 | 39.3 | 183
CAGCCCCACAGCCUCAGA [hsa-miR-4323] | 2.83 | -13.4 | 39.3
CCCAAUACACGGUCGACCUCUU [hsa-miR-323b-3p] | -23.7 | 68.7 | 77.6
AUUGCCUCUGUUCUAACACAAG [hsa-miR-3152-5p] | -11.4 | 38.3 | 129
UGCAUCACAGCCUUUGGCCCUAG [hsa-miR-7112-3p] | -28 | 45.4 | 45.8
UCAAAUGCAGAUCCUGACUUC [hsa-miR-7853-5p] | -15.6 | 14 | 42.1
UCUCACCCCAACUCUGCCCCAG [hsa-miR-6784-3p] | -25.6 | 44.3 | 56.5
AGCACACUGAGCGAGCGGAC [hsa-miR-8064] | -0.792 | -14.8 | 44.2
GCUGGGAAGGCAAAGGGACGU [hsa-miR-204-3p] | -9.16 | 24.5 | 49.7
CGCGCCUGCAGGAACUGGUAGA [hsa-miR-6720-3p] | -13.6 | 71.3 | 57.7
GCCCAGGACUUUGUGCGGGGUG [hsa-miR-6840-3p] | -16.9 | 16.2 | 117
GGGGGGAUGUGCAUGCUGGUU [hsa-miR-4525] | 22.7 | -7.81 | 26.2

Sequence | one-nucleolus phenotype percent effect (MCF10A [1]) [%] | 5+ nucleoli phenotype percent effect (MCF10A [2]) [%] | percent viability (MCF10A [3]) [%]
UUGGAGGGUGUGGAAGACAUC [hsa-miR-6515-5p] | 40.1 | -18.5 | 19
CAAAGUUUAAGAUCCUUGAAGU [hsa-miR-561-3p] | -26.2 | 23.4 | 182
UGCCUACUGAGCUGAAACACAG [hsa-miR-24-2-5p] | 7.59 | -9.36 | 46.7
GCCCUGACCUGUCCUGUUCUG [hsa-miR-4732-3p] | -20.3 | 21.5 | 64.3
AAAAGUUAUUGCGGUUUUGGCU [hsa-miR-548at-5p] | -14.7 | 15 | 54.1
UGGCAAACGUGGAAGCCGAGA [hsa-miR-4470] | 61 | -21.5 | 15.8
AAAGACCCAUUGAGGAGAAGGU [hsa-miR-3667-5p] | 11.5 | -13.6 | 99.1
AUGUAGGGCUAAAAGCCAUGGG [hsa-miR-135b-3p] | 6.54 | 10.5 | 14.3
CUCGCCCUGUCUCCCGCUAG [hsa-miR-6726-3p] | -28.4 | 66.4 | 126
ACUUACAGACAAGAGCCUUGCUC [hsa-miR-600] | -28.1 | 41.8 | 145
AGAGUCGGCGACGCCGCCAGC [hsa-miR-4785] | 25.1 | -30.3 | 49.5
UCCAUUACACUACCCUGCCUCU [hsa-miR-885-5p] | -5.62 | -8.23 | 71.4
GAGGGCAGAGCCAGCUUCCUGA [hsa-miR-7843-5p] | 16.5 | 13.7 | 32.5
ACAGGCACGACUGGUUUGGCA [hsa-miR-6715b-5p] | 54.7 | -27.8 | 14.8
ACCUGGCAUACAAUGUAGAUUU [hsa-miR-221-5p] | 62.6 | -26.8 | 36
UCAGGCUCAGUCCCCUCCCGAU [hsa-miR-484] | -7.07 | 40.7 | 97
AAACAAACAUGGUGCACUUCUU [hsa-miR-495-3p] | 5.47 | -10.6 | 93.6
GCUCUGACGAGGUUGCACUACU [hsa-miR-301b-5p] | -22.6 | 15.2 | 60.8
AAGGGAGGAGGAGCGGAGGGGCCCU [hsa-miR-4739] | 21.1 | 4.78 | 19.6
AAAGUGCUGCGACAUUUGAGCGU [hsa-miR-372] | -16.8 | 52.4 | 64.2

Sequence | one-nucleolus phenotype percent effect (MCF10A [1]) [%] | 5+ nucleoli phenotype percent effect (MCF10A [2]) [%] | percent viability (MCF10A [3]) [%]
CCAAAUCUUGAUCAGAAGCCU [hsa-miR-4762-5p] | -8.43 | 26.6 | 106
GACAUUCAGACUACCUG [hsa-miR-4262] | 6.49 | -5.77 | 86.4
UACCUGGGAGACUGAGGUUGGA [hsa-miR-7851-3p] | -15.4 | 24.6 | 61.5
AGUUAGGAUUAGGUCGUGGAA [hsa-miR-1258] | 6.84 | -19.1 | 37.3
CCAGGAGGCGGAGGAGGUGGAG [hsa-miR-4459] | 9.39 | -0.862 | 64.6
UGCGGGGCUAGGGCUAACAGCA [hsa-miR-744-5p] | 53.9 | -35.1 | 12
CUAGACUGAAGCUCCUUGAGG [hsa-miR-151a-3p] | -1.52 | -6.07 | 66.5
UCUCUGGUCUUUCCUUGACAG [hsa-miR-6764-3p] | 0.623 | 17.2 | 27.5
UACAGUACUGUGAUAACUGAA [hsa-miR-101-3p] | 11.6 | -26.5 | 86
GGCAGGUUCUCACCCUCUCUAGG [hsa-miR-657] | 4.3 | 15.8 | 44.7
CUGUGCGUGUGACAGCGGCUGA [hsa-miR-210] | -1.99 | -13.9 | 56.6
CGGCCCCACGCACCAGGGUAAGA [hsa-miR-874-5p] | -19.8 | 38.1 | 85.9
UGAGAACCACGUCUGCUCUGAG [hsa-miR-589-5p] | -14.3 | -4.96 | 88.9
UUGGGAUGGUAGGACCAGAGGGG [hsa-miR-6728-5p] | -15.8 | 24.3 | 50.3
UCAGUUCCAGGCCAACCAGGCU [hsa-miR-584-3p] | 19.6 | 3.58 | 43.9
CCUCCGUGUUACCUGUCCUCUAG [hsa-miR-3605-3p] | 0.086 | -3.31 | 92.7
AUAUACAGGGGGAGACUCUUAU [hsa-miR-1185-1-3p] | 9.76 | -12.6 | 20.3
CAAAGGCCACAUUCUCCUGUGCAC [hsa-miR-6768-3p] | 28 | -27.1 | 23.3
AAAUGUCACCUUUUUGAGAGGA [hsa-miR-513b-3p] | -7.38 | -25.5 | 94.2
